Measured values from the supplement of paper PMC11246515.
± gives the standard deviation of the averaged measurements.

Test: total protein half-life in vivo (active degradation + dilution); higher = more stable protein
[1] = E. coli NCM3722 delta-clpP delta-lon delta-hslV, growth: N-lim chemostat, doubling time 6 h
[2] = E. coli NCM3722 delta-hslV, growth: N-lim chemostat, doubling time 6 h
[3] = E. coli NCM3722 delta-lon, growth: N-lim chemostat, doubling time 6 h
[4] = E. coli NCM3722 delta-smpB, growth: N-lim chemostat, doubling time 6 h
[5] = wild type E. coli NCM3722, growth: C-lim chemostat, doubling time 3 h
[6] = wild type E. coli NCM3722, growth: C-lim chemostat, doubling time 6 h
[7] = wild type E. coli NCM3722, growth: C-lim chemostat, doubling time 12 h
[8] = wild type E. coli NCM3722, growth: N-lim chemostat, doubling time 6 h
[9] = wild type E. coli NCM3722, growth: N-lim chemostat, doubling time 12 h
[10] = wild type E. coli NCM3722, growth: P-lim chemostat, doubling time 6 h
[11] = wild type E. coli NCM3722, growth: P-lim chemostat, doubling time 12 h
[12] = E. coli NCM3722 delta-clpP, growth: N-lim chemostat, doubling time 6 h

Sequence	total protein half-life in vivo [1] [h]	total protein half-life in vivo [2] [h]	total protein half-life in vivo [3] [h]	total protein half-life in vivo [4] [h]	total protein half-life in vivo [5] [h]	total protein half-life in vivo [6] [h]	total protein half-life in vivo [7] [h]	total protein half-life in vivo [8] [h]	total protein half-life in vivo [9] [h]	total protein half-life in vivo [10] [h]	total protein half-life in vivo [11] [h]	total protein half-life in vivo [12] [h]
MDKELPWLADNAQLELKYKKGKTPLSHRRWPGEPVSVITGSLIQTLGDELLQKAEKKKNIVWRYENFSLEWQSAITQAINLIGEHKPSIPARTMAALACIAQNDSQQLLDEIVQQEGLEYATEVVIARQFIARCYESDPLVVTLQYQDEDYGYGYRSETYNEFDLRLRKHLSLAEESCWQRCADKLIAALPGINKVRRPFIALILPEKPEIANELVGLECPRTHFHSKEWLKVVANDPTAVRKLEHYWSQDIFSDREASYMSHENHFGYAACAALLREQGLAAIPRLAMYAHKEDCGSLLVQINHPQVIRTLLLVADKNKPSLQRVAKYHKNFPHATLAALAELLALTEPPARPGYPIIEDKKLPAQQKARDEYWRTLLQTLMASQPQLAAEVMPWLSTQPQSVLKSYLSAPPKPVIDGTDNSNLPEILVSPPWRSKKKMTAPRLDLAPLELTPQVYWQPGEQERLAATEPARYFSTESLAQRMEQKSGRVVLQELGFGDDVWLFLNYILPGKLDAARNSLFVQWHYYQGRVEEILNGWNSPEAQLAEQALRSGHIEALINIWENDNYSHYRPEKSVWNLYLLAQLPREMALTFWLRINEKKHLFAGEDYFLSILGLDALPGLLLAFSHRPKETFPLILNFGATELALPVAHVWRRFAAQRDLARQWILQWPEHTASALIPLVFTKPSDNSEAALLALRLLYEQGHGELLQTVANRWQRTDVWSALEQLLKQGPMDIYPARIPKAPDFWHPQMWSRPRLITNNQTVTNDALEIIGEMLRFTQGGRFYSGLEQLKTFCQPQTLAAFAWDLFTAWQQAGAPAKDNWAFLALSLFGDESTARDLTTQILAWPQEGKSARAVSGLNILTLMNNDMALIQLHHISQRAKSRPLRDNAAEFLQVVAENRGLSQEELADRLVPTLGLDDPQALSFDFGPRQFTVRFDENLNPVIFDQQNVRQKSVPRLRADDDQLKAPEALARLKGLKKDATQVSKNLLPRLETALRTTRRWSLADFHSLFVNHPFTRLVTQRLIWGVYPANEPRCLLKAFRVAAEGEFCNAQDEPIDLPADALIGIAHPLEMTAEMRSEFAQLFADYEIMPPFRQLSRRTVLLTPDESTSNSLTRWEGKSATVGQLMGMRYKGWESGYEDAFVYNLGEYRLVLKFSPGFNHYNVDSKALMSFRSLRVYRDNKSVTFAELDVFDLSEALSAPDVIFH	6.38											
MDKFDANRRKLLALGGVALGAAILPTPAFATLSTPRPRILTLNNLHTGESIKAEFFDGRGYIQEELAKLNHFFRDYRANKIKSIDPGLFDQLYRLQGLLGTRKPVQLISGYRSIDTNNELRARSRGVAKKSYHTKGQAMDFHIEGIALSNIRKAALSMRAGGVGYYPRSNFVHIDTGPARHW [P0AB06]	3.83 ± 1.1	2.76 ± 2.8	1 ± 0.91	1.8 ± 0.088	0.68 ± 0.53	2.67 ± 0.29	6.36 ± 2	1.97 ± 0.11	1.81 ± 1.2	1.82 ± 0.81	2.46 ± 0.46	
MDKIEVRGARTHNLKNINLVIPRDKLIVVTGLSGSGKSSLAFDTLYAEGQRRYVESLSAYARQFLSLMEKPDVDHIEGLSPAISIEQKSTSHNPRSTVGTITEIHDYLRLLFARVGEPRCPDHDVPLAAQTVSQMVDNVLSQPEGKRLMLLAPIIKERKGEHTKTLENLASQGYIRARIDGEVCDLSDPPKLELQKKHTIEVVVDRFKVRDDLTQRLAESFETALELSGGTAVVADMDDPKAEELLFSANFACPICGYSMRELEPRLFSFNNPAGACPTCDGLGVQQYFDPDRVIQNPELSLAGGAIRGWDRRNFYYFQMLKSLADHYKFDVEAPWGSLSANVHKVVLYGSGKENIEFKYMNDRGDTSIRRHPFEGVLHNMERRYKETESSAVREELAKFISNRPCASCEGTRLRREARHVYVENTPLPAISDMSIGHAMEFFNNLKLAGQRAKIAEKILKEIGDRLKFLVNVGLNYLTLSRSAETLSGGEAQRIRLASQIGAGLVGVMYVLDEPSIGLHQRDNERLLGTLIHLRDLGNTVIVVEHDEDAIRAADHVIDIGPGAGVHGGEVVAEGPLEAIMAVPESLTGQYMSGKRKIEVPKKRVPANPEKVLKLTGARGNNLKDVTLTLPVGLFTCITGVSGSGKSTLINDTLFPIAQRQLNGATIAEPAPYRDIQGLEHFDKVIDIDQSPIGRTPRSNPATYTGVFTPVRELFAGVPESRARGYTPGRFSFNVRGGRCEACQGDGVIKVEMHFLPDIYVPCDQCKGKRYNRETLEIKYKGKTIHEVLDMTIEEAREFFDAVPALARKLQTLMDVGLTYIRLGQSATTLSGGEAQRVKLARELSKRGTGQTLYILDEPTTGLHFADIQQLLDVLHKLRDQGNTIVVIEHNLDVIKTADWIVDLGPEGGSGGGEILVSGTPETVAECEASHTARFLKPML [P0A698]	6.85 ± 0.08	6.32 ± 0.14	6.4 ± 0.084	5.66 ± 0.51	3.21 ± 0.095	6.19 ± 0.7	12.1 ± 0.6	6.24 ± 0.3	12.7 ± 0.13	6.273 ± 0.06	13.6 ± 0.84	6.52 ± 0.27
MDKKQVTDLRSELLDSRFGAKSISTIAESKRFPLHEMRDDVAFQIINDELYLDGNARQNLATFCQTWDDENVHKLMDLSINKNWIDKEEYPQSAAIDLRCVNMVADLWHAPAPKNGQAVGTNTIGSSEACMLGGMAMKWRWRKRMEAAGKPTDKPNLVCGPVQICWHKFARYWDVELREIPMRPGQLFMDPKRMIEACDENTIGVVPTFGVTYTGNYEFPQPLHDALDKFQADTGIDIDMHIDAASGGFLAPFVAPDIVWDFRLPRVKSISASGHKFGLAPLGCGWVIWRDEEALPQELVFNVDYLGGQIGTFAINFSRPAGQVIAQYYEFLRLGREGYTKVQNASYQVAAYLADEIAKLGPYEFICTGRPDEGIPAVCFKLKDGEDPGYTLYDLSERLRLRGWQVPAFTLGGEATDIVVMRIMCRRGFEMDFAELLLEDYKASLKYLSDHPKLQGIAQQNSFKHT	6.14 ± 0.21		6.24 ± 0.063	5.24 ± 0.19	3.41	6.25 ± 0.14		5.7107 ± 0.00073	10.9 ± 0.24	5.97 ± 0.86	13.1 ± 0.33	6.13 ± 0.6
MDKQSLHETAKRLALELPFVELCWPFGPEFDVFKIGGKIFMLSSELRGVPFINLKSDPQKSLLNQQIYPSIKPGYHMNKKHWISVYPGEEISEALLRDLINDSWNLVVDGLAKRDQKRVRPG [P0AAT2]	5.54 ± 0.35	5.97 ± 0.5	6.9 ± 0.29	5.28 ± 0.71	3.35 ± 0.7	5.17 ± 0.11	11.2 ± 0.26	4.78 ± 0.46	10.1 ± 2.1	4.72 ± 1.1	10.6 ± 0.46	6.23
MDKSKRHLAWWVVGLLAVAAIVAWWLLRPAGVPEGFAVSNGRIEATEVDIASKIAGRIDTILVKEGKFVREGEVLAKMDTRVLQEQRLEAIAQIKEAQSAVAAAQALLEQRQSETRAAQSLVNQRQAELDSVAKRHTRSRSLAQRGAISAQQLDDDRAAAESARAALESAKAQVSASKAAIEAARTNIIQAQTRVEAAQATERRIAADIDDSELKAPRDGRVQYRVAEPGEVLAAGGRVLNMVDLSDVYMTFFLPTEQAGTLKLGGEARLILDAAPDLRIPATISFVASVAQFTPKTVETSDERLKLMFRVKARIPPELLQQHLEYVKTGLPGVAWVRVNEELPWPDDLVVRLPQ	7.13 ± 1.2	6.68 ± 0.17	6.78 ± 0.59	5.93 ± 0.0093	3.27 ± 0.32	6.21 ± 0.2	13 ± 1	6.37 ± 0.43	13.5 ± 1.4	6.03 ± 0.35	12.9 ± 0.49	6.23 ± 0.4
